As a reminder, the Kd is the constant that tells how readily two partners part at equilibrium. High values mean weaker binding, low ones tighter binding.

For this assay, the target named is MBP-TNFR1^ECD deletion mutant ΔCRD2 (human) (UniProt P19438). The assay can be described thus: ITC; MicroCal PEAQ-ITC, 16 °C; […] (500–600 μM) […] (~60 μM); 20 mM Tris-HCl pH 7.5, 200 mM NaCl; […].

Turning to “Staphylococcal superantigen-like protein 10 (SSL10), residues 31-227, C-terminal 6xHis (from UniProt A0A0H3K6Z9 31-227) (natural protein)”, the Kd turned out to be 30.3 µM.
